This test deals with T1, translin-associated factor x (trax), mouse, N-terminal 6x-His tag (mouse (M. musculus), UniProt Q9QZE7 1-290).
T1 sequence (looked up): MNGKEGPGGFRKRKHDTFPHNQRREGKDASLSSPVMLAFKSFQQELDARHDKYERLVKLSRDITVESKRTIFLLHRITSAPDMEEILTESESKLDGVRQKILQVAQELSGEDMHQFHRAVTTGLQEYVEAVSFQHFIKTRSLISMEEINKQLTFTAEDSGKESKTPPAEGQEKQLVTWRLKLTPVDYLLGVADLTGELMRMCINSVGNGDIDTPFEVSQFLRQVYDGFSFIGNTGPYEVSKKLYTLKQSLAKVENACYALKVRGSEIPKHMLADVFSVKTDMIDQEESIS
Put plainly: pull-down.

B1: translin (mouse), co-expressed with trax from pETDuet-1 (natural protein, mouse (M. musculus), UniProt Q62348 1-228, looked up)
chain: MSVSEIFVELQGFLAAEQDIREEIRKVVQSLEQTAREILTLLQGVHQGTGFQDIPKRCLKAREHFSTVKTHLTSLKTKFPAEQYYRFHEHWRFVLQRLVFLAAFVVYLETETLVTREAVTEILGIEPDREKGFHLDVEDYLSGVLILASELSRLSVNSVTAGDYSRPLHISTFINELDSGFRLLNLKNDSLRKRYDGLKYDVKKVEEVVYDLSIRGFNKETAAACGEK
As a reminder, the stoichiometry N is the number of molecules, sites or subunits per partner or assembly. As for B1, the “stoichiometry N” value was approximately 1.
